# In patent publication US20250340608A1 (PROTAGONIST THERAPEUTICS, published 2025):
# Numbered stars: 1 amine (or outer) side, 2 acyl side, 3 side chain; on linkers, the order of the positions; unused ones are H or OH. Square brackets hold non-standard residues; d marks the D form. Primed or numbered codes have the meaning given here. Ends that are not written are not given here. * marks the point of attachment. Ida = iminodiacetic acid, O=C(CN(CC(=O)[*:3])[*:1])[*:2]; PEG8′ = PEG8 conjugated to the Lys side chain; Palmitoyl = CCCCCCCCCCCCCCCC(=O)*; β3hP = O=C(O)C[C@@H]1CCCN1; Isovaleryl = CC(C)CC(=O)*; PEG11′ = not defined here; Isobutyryl = CC(C)C(=O)*; Octanoyl = CCCCCCCC(=O)*
# B1: Compound 103 (peptide)
# peptide: H-EDTHFPCIIFGPRSKGWVCK-NH2
# modifications: not fully specified (bridges); printed as Hy-EDTHFPCIIFGPRSKGWVCK-NH2; cysteine pairing not given here
# B2: Compound 102 (peptide)
# peptide: H-DTHFPCIKFGPRSKGWVCK-NH2
# modifications: not fully specified (bridges); printed as Hy-DTHFPCIKFGPRSKGWVCK-NH2; cysteine pairing not given here
# B3: Compound 110 (peptide)
# peptide: [Ida]THFPCIIFGPRSRGWVCK-NH2
# modifications: not fully specified (bridges); printed as [Ida]-THFPCIIFGPRSRGWVCK-NH2; cysteine pairing not given here
# B4: Compound 86 (peptide)
# peptide: H-DTHFPCIIFGPRSKGWVCK-NH2
# modifications: not fully specified (bridges); printed as Hy-DTHFPCIIFGPRSKGWVCK-NH2; cysteine pairing not given here
# B5: Compound 79 (peptide)
# peptide: H-DTHF[β3hP]CIIFGPRSRGWVCK-NH2
# modifications: not fully specified (bridges); printed as Hy-DTHF[bh-Pro]-CIIFGPRSRGWVCK-NH2; cysteine pairing not given here
# B6: Compound 87 (peptide)
# peptide: H-DTHFPCIIFGPRARGWVCK-NH2
# modifications: not fully specified (bridges); printed as Hy-DTHFPCIIFGPRARGWVCK-NH2; cysteine pairing not given here
# B7: Compound 85 (peptide)
# peptide: H-DTHFPCIYFGPRSKGWVCK-NH2
# modifications: not fully specified (bridges); printed as Hy-DTHFPCIYFGPRSKGWVCK-NH2; cysteine pairing not given here
# B8: Compound 84 (peptide)
# peptide: H-DTHFPCIIFGPRSRGVCK-NH2
# modifications: not fully specified (bridges); printed as Hy-DTHFPCIIFGPRSRGVCK-NH2; cysteine pairing not given here
# B9: Compound 101 (peptide)
# peptide: H-DTHFPCISFGPRSKGWVCK-NH2
# modifications: not fully specified (bridges); printed as Hy-DTHFPCISFGPRSKGWVCK-NH2; cysteine pairing not given here
# B10: Compound 89 (peptide)
# peptide: {Palmitoyl-PEG11′}-DTHFPCIIFGPRSRGWVCK-NH2
# modifications: not fully specified (bridges); printed as Palm-PEG11-DTHFPCIIFGPRSRGWVCK-NH2; cysteine pairing not given here
# Target: T1, human ferroportin (SLC40A1) fused in frame with GFP, stably expressed in HEK293 cells (human, UniProt Q9NP59 1-571)
# T1 sequence (looked up): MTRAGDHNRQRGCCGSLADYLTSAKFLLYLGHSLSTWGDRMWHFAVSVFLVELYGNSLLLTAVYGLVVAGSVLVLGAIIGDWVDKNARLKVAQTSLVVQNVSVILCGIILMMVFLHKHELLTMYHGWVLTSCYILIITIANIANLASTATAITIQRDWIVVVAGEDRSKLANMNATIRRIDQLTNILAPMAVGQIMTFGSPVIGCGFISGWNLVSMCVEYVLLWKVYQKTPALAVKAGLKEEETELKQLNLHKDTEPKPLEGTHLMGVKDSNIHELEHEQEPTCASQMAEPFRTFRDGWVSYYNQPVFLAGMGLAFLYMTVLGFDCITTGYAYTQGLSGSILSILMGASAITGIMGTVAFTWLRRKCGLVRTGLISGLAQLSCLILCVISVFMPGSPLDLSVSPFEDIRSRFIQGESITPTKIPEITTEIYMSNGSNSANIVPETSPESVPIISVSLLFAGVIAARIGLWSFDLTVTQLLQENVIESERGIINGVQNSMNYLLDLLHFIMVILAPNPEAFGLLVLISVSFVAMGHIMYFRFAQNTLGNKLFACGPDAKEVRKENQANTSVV
# Assay: cell-based or functional assay
Binder,Potency EC50 [nM],Potency EC50 (nM)
Isovaleryl-DTHFPCIKFGPRSKGWVCK(PEG8′)-NH2 (cysteine pairing not given here) [Compound 153],18,–
H-DTHFPCIIFGPRSRGWVCK-NH2 (cysteine pairing not given here) [Compound 83],–,> 1000
H-DTHFPCISFGPRSKGWVCM-NH2 (cysteine pairing not given here) [Compound 135],545,–
Isovaleryl-DTHFPCIIFEPRSKGWVCK-NH2 (not fully specified (bridges); cysteine pairing not given here) [Compound 105],10,–
Isovaleryl-DTHFPCIKFGPRSKGWTCK-NH2 (cysteine pairing not given here) [Compound 154],18,–
Isovaleryl-DTKFPCIIFGPRSKGWVCK-NH2 (cysteine pairing not given here) [Compound 147],20,–
B1,–,> 1000
H-DTHFPCIRFGPRSRGWRCK-NH2 (cysteine pairing not given here) [Compound 82],–,> 1000
B2,–,> 1000
Isovaleryl-DTHFPCIK(PEG8′)FGPRSKGWVCK-NH2 (cysteine pairing not given here) [Compound 149],9,–
H-DTHFPCIKFGPRSKGWVCM-NH2 (cysteine pairing not given here) [Compound 136],669,–
B3,> 300,–
B4,–,> 1000
Octanoyl-DTHFPCIIFGPRSRGWVCK-NH2 (not fully specified (bridges); cysteine pairing not given here) [Compound 88],–,> 1000
B5,–,> 1000
H-HFPCIIFGPRSKGWVCM-NH2 (cysteine pairing not given here) [Compound 133],–,> 1000
Isovaleryl-DTHFPCIIFEPRSKGWVCKKKK-NH2 (cysteine pairing not given here) [Compound 144],15,–
Isovaleryl-DTHFPCIKFGPKSKGWVCK-NH2 (not fully specified (bridges); cysteine pairing not given here) [Compound 112],15,–
Isovaleryl-DTHFPCIIFEPRSKGWVCK-NH2 (cysteine pairing not given here) [Compound 142],9,–

Binder,Potency EC50 [nM],Potency EC50 (nM)
H-DTHFPCIIFGPRSRGWRCK-NH2 (cysteine pairing not given here) [Compound 80],–,> 1000
Isovaleryl-DTHFPCIIFGPRSKGWCK-NH2 (not fully specified (bridges); cysteine pairing not given here) [Compound 113],15,–
{Octanoic acid-PEG11′}-DTHFPCIIFGPRSRGWVCK-NH2 (not fully specified (bridges); cysteine pairing not given here) [Compound 108],–,> 1000
H-EDTHFPCIIFGPRSKGWVCM-NH2 (cysteine pairing not given here) [Compound 137],873,–
B6,–,> 1000
B7,705,–
H-THFPCIIFGPRSKGWVCM-NH2 (cysteine pairing not given here) [Compound 132],–,> 1000
Isovaleryl-DTHFPCIIFGPRSKGVC-NH2 (not fully specified (bridges); cysteine pairing not given here) [Compound 114],18,–
Isovaleryl-DTHFSCIIFGPRSKGWVCK-NH2 (not fully specified (bridges); cysteine pairing not given here) [Compound 107],50,–
{Isobutyryl-PEG11′}-DTHFPCIIFGPRSRGWVCK-NH2 (not fully specified (bridges); cysteine pairing not given here) [Compound 109],–,> 1000
H-DTHFPCIRFGPRSRGWVCK-NH2 (cysteine pairing not given here) [Compound 81],–,> 1000
Isovaleryl-DTHFKCIEFGPRSKGWVCK-NH2 (cysteine pairing not given here) [Compound 140],–,> 1000
B8,–,> 1000
Isovaleryl-DTHFPCIIFGPRSKGWVCKK-NH2 (cysteine pairing not given here) [Compound 145],9,–
B9,–,> 1000
B10,–,> 1000
Isovaleryl-HFPCIIFGPRSKGWVCM-NH2 (cysteine pairing not given here) [Compound 134],–,> 1000
DTHFPCIKFKPRSKGWVCK (N-terminal isovaleric acid; PEG8 on side chain of Lys 10; C-terminal amide) [Compound 150],7,–
